{"source": "patent EP2061494B1", "about": "(Universita' Degli Studi di Torino, dated 2012)", "binders": {"B1": {"name": "p140Cap (endogenous protein of MCF7 human breast carcinoma cell extracts) (other, UniProt Q9C0H9 1-1183, looked up)", "chain": "MGNAPSQDPERSSPPMLSADDAEYPREYRTLGGGGGGGSGGRRFSNVGLVHTSERRHTVIAAQSLEALSGLQKADADRKRDAFMDHLKSKYPQHALALRGQQDRMREQPNYWSFKTRSSRHTQGAQPGLADQAAKLSYASAESLETMSEAELPLGFSRMNRFRQSLPLSRSASQTKLRSPGVLFLQFGEETRRVHITHEVSSLDTLHALIAHMFPQKLTMGMLKSPNTAILIKDEARNVFYELEDVRDIQDRSIIKIYRKEPLYAAFPGSHLTNGDLRREMVYASRESSPTRRLNNLSPAPHLASGSPPPGLPSGLPSGLQSGSPSRSRLSYAGGRPPSYAGSPVHHAAERLGGAPAAQGVSPSPSAILERRDVKPDEDLASKAGGMVLVKGEGLYADPYGLLHEGRLSLAAAAGDPFAYPGAGGLYKRGSVRSLSTYSAAALQSDLEDSLYKAAGGGGPLYGDGYGFRLPPSSPQKLADVAAPPGGPPPPHSPYSGPPSRGSPVRQSFRKDSGSSSVFAESPGGKTRSAGSASTAGAPPSELFPGPGERSLVGFGPPVPAKDTETRERMEAMEKQIASLTGLVQSALLRGSEPETPSEKIEGSNGAATPSAPCGSGGRSSGATPVSGPPPPSASSTPAGQPTAVSRLQMQLHLRGLQNSASDLRGQLQQLRKLQLQNQESVRALLKRTEAELSMRVSEAARRQEDPLQRQRTLVEEERLRYLNDEELITQQLNDLEKSVEKIQRDVSHNHRLVPGPELEEKALVLKQLGETLTELKAHFPGLQSKMRVVLRVEVEAVKFLKEEPQRLDGLLKRCRGVTDTLAQIRRQVDEGVWPPPNNLLSQSPKKVTAETDFNKSVDFEMPPPSPPLNLHELSGPAEGASLTPKGGNPTKGLDTPGKRSVDKAVSVEAAERDWEEKRAALTQYSAKDINRLLEETQAELLKAIPDLDCASKAHPGPAPTPDHKPPKAPHGQKAAPRTEPSGRRGSDELTVPRYRTEKPSKSPPPPPPRRSFPSSHGLTTTRTGEVVVTSKKDSAFIKKAESEELEVQKPQVKLRRAVSEVARPASTPPIMASAIKDEDDEDRIIAELESGGGSVPPMKVVTPGASRLKAAQGQAGSPDKSKHGKQRAEYMRIQAQQQATKPSKEMSGSNETSSPVSEKPSASRTSIPVLTSFGARNSSISF"}}, "biological_target": "Src kinase (endogenous protein of MCF7 cells) (human, UniProt P12931 2-536)", "assay": "cell-based or functional assay"}
{"binder": "B1", "values": [{"measurement": "Src activity induced by adhesion to fibronectin (in vitro kinase assay) after shRNA down-regulation of p140Cap", "result": 5, "unit": "fold"}]}
